Assay results: US20240417462A1 (SHANGHAI CELGEN BIO PHARMACEUTICAL, published 2024)
Changes are numbered by the printed parent chain. Like-named read-outs stand apart in the source and are kept apart here.

B1: humanized anti-human TIGIT monoclonal antibody P03488 (antibody, V domains shown)
VH: QVQLVQSGAEVKKPGASVKVSCKASGYTFISYNIYWVRQAPGQGLEWIGGVNPSNGNTNFNENFKGRVTLTVDTSISTAYMELSRLRSDDTAVYYCTRGNYYGYEFAYWGQGTTVTVSS
VL: DIQMTQSPSSMSASVGDRVTITCKASQHVSTAVAWYQQKPGKAPKLLIYSPSYRYTGVPSRFSGSGSGTDFTFTISSVQPEDIATYYCQQHYSTPWTFGGGTKLEIK
B2: humanized anti-human TIGIT monoclonal antibody P03489 (antibody, V domains shown)
VH: B1 VH with I48M, K65Q, L70M
VL: B1 VL
B3: humanized anti-human TIGIT monoclonal antibody P03477 (antibody, V domains shown)
VH: EVQVVESGGGLVKPGGSLRLSCAASGFTFSTYAMSWVRQAPGKGLEWVAEISSGGSHTFYSDTVTGRFTISRDNAKNTLYLQMNSLRAEDTAVYYCARKTLDYYALDYWGQGTTVTVSS
VL: DVQITQSPSSVSASVGDRVTINCRASKSISKYLAWYQQKPGKAPKLLIYSGSRLQSGVPSRFSGSGSGTDFTLTISSLQPEDFATYYCQQHNEYPWTFGGGTKLEIK
B4: humanized anti-human TIGIT monoclonal antibody P03476 (antibody, V domains shown)
VH: B3 VH
VL: B3 VL with S10Y, V11L, V58I, S67Y
B5: humanized anti-human TIGIT monoclonal antibody P03478 (antibody, V domains shown)
VH: B3 VH
VL: B3 VL with V2I, I4M, N22T
B6: humanized anti-human TIGIT monoclonal antibody P03480 (antibody, V domains shown)
VH: B3 VH with S61A, T65K
VL: B3 VL
B7: humanized anti-human TIGIT monoclonal antibody P03481 (antibody, V domains shown)
VH: B3 VH with S61A, T65K
VL: B3 VL with V2I, I4M, N22T
B8: humanized anti-human TIGIT monoclonal antibody P03482 (antibody, V domains shown)
VH: B3 VH with V4L, S61A
VL: B3 VL with S10Y, V11L, V58I, S67Y
B9: humanized anti-human TIGIT monoclonal antibody P03483 (antibody, V domains shown)
VH: B3 VH with V4L, S61A
VL: B3 VL
B10: humanized anti-human TIGIT monoclonal antibody P03484 (antibody, V domains shown)
VH: B3 VH with V4L, S61A
VL: B3 VL with V2I, I4M, N22T
B11: humanized anti-human TIGIT monoclonal antibody P04664 (antibody, V domains shown)
VH: B3 VH with G42E, K43Q, G44R
VL: B3 VL with D17E, R18T, V19I

How the values were obtained:
[1] = target: T1, recombinant human TIGIT (Human TIGIT His, Sino Biological, 10917-H08H) (human, UniProt Q495A1 22-138); experiment: BLI, antibody captured on anti-human Fc probe, TIGIT-His in solution
T1 construct: range 1-138; bought; also called hTIGIT
T1 sequence (looked up): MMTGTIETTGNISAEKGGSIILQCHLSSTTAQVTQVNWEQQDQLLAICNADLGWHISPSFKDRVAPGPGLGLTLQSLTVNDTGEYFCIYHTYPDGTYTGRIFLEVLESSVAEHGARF

[2] = target: T2, full-length human TIGIT expressed on CHO-K cell membrane (CHO-K-TIGIT) (human, UniProt Q495A1 22-244); experiment: flow cytometry, CHO-TIGIT cells
T2 construct: whole, on cells; also called CHO-TIGIT; membrane TIGIT
T2 sequence (looked up): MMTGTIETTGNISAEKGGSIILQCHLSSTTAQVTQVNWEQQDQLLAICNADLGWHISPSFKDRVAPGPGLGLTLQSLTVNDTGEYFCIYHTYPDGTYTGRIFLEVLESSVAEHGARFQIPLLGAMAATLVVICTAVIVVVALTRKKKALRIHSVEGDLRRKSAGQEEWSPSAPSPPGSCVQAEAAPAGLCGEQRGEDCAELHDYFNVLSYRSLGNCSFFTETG

[3] = target: T1, recombinant human TIGIT (Human TIGIT …); experiment: BLI, antibody captured on anti-human Fc probe, TIGIT-His in solution; remark: listed apart in the source
[4] = target: T1, recombinant human TIGIT (Human TIGIT …); experiment: ELISA, coated human TIGIT-His
[5] = target: T1, recombinant human TIGIT (Human TIGIT …); experiment: competition ELISA on recombinant human TIGIT, CD155 as competitor

Binder | Kd [1] [nM] | koff [1] [s⁻¹] | kon [1] [M⁻¹ s⁻¹] | EC50 [2] [nM] | Kd [3] [nM] | koff [3] [s⁻¹] | kon [3] [M⁻¹ s⁻¹] | EC50 [4] [nM] | IC50 [5] [nM]
B1 | 1.02 | 0.000519 | 511000 | – | – | – | – | – | –
B2 | 1.19 | 0.000584 | 489000 | 0.761 | – | – | – | – | –
B3 | – | – | – | 1.74 | 5.95 | 0.00291 | 490000 | 0.194 | 0.928
B4 | – | – | – | 1.52 | 7.92 | 0.00483 | 610000 | 0.221 | 1.32
B5 | – | – | – | 2.58 | 10.1 | 0.00714 | 707000 | 0.161 | 0.989
B6 | – | – | – | 2.19 | 6.67 | 0.00404 | 605000 | 0.252 | 1.24
B7 | – | – | – | 2.82 | 10 | 0.00666 | 665000 | 0.122 | 0.62
B8 | – | – | – | 2.38 | 6.15 | 0.00406 | 661000 | 0.182 | 0.791
B9 | – | – | – | 2.61 | 7.77 | 0.0046 | 592000 | 0.212 | 0.836
B10 | – | – | – | – | 9.15 | 0.00639 | 699000 | 0.187 | 1.29
B11 | – | – | – | – | 2.73 | 0.00391 | 1.43e+06 | – | –
